This passage reports Kd results from PMC11970506.

The target in the assay is POTRA1, 2 construct of BamA (E. coli). In words: SPR; Biacore T100; POTRA1, 2 immobilised by amine coupling to a CM5 chip; SurA flowed at 0 to 10 mg/ml; 25 mM MES, 150 mM NaCl, pH 6.5, 25°C.

Usually Kd stands for a measure of binding affinity in units of concentration. High values mean a looser complex, low ones a tighter complex. Substance “survival protein A (SurA), without the signal sequence (amino acids 21 to 428) (from UniProt P0ABZ6 21-428) (natural protein)” gave a Kd of 16 µM.
